Assay results as given in publication PMC7707506, “The crystal structure of mouse IRG1 suggests that cis-aconitate decarboxylase has an open and closed conformation” (PLoS ONE, 2020).

Target: the molecule itself
Experiment: SEC-MALS; Superdex 200 10/300, 20 mM Tris-HCl pH 8.0, 150 mM NaCl, 0.4 mL/min, 25°C; BSA as the reference

B1: full-length mouse IRG1 (immune responsive gene 1) (enzyme, Mus musculus (mouse), UniProt P54987 1-488, looked up)
chain: MMLKSVTESFAGMIHGLKVNHLTDGIIRRSKRMILDSLGVGFLGTGTEVFHKVTQYSKIYSSNTSSTVWGRPDFRLPPTYAAFVNGVAVHSMDFDDTWHPATHPSGAVLPVLTALSEALPQIPKFSGLDLLLAFNVGIEVQGRLMHFSKEAKDIPKRFHPPSVVGTLGSAAAASKFLGLSLTKCREALAIAVSHAGAPIANAATQTKPLHIGNAAKHGMEATFLAMLGLQGNKQILDLGSGFGAFYANYSPEDLPSLDSHIWLLDQQDVAFKSFPAHLATHWVADAAAAVRKHLVTPERALFPADHIERIVLRIPDVQYVNRPFPDSEHEARHSFQYVACASLLDGSITVPSFHSQQVNRPQVRELLKKVKLEHPPDNPPSFDTLYCEISITLKDGTTFTERSDTFYGHWRKPLSQEDLRNKFRANASKMLCRDTVESLITVVEKLEDLEDCSVLTRLLKGPSVQDEASKLSSMSSFDHTTLPRFTNI
notes: immune responsive gene 1 (IRG1, cis-aconitate decarboxylase), Mus musculus, NCBI NP_032418.1, full length, residues 1 to 488, cloned into pET21a (NdeI/XhoI); In the crystal, molecule A was modelled from residues 5 to 463 and molecule B from residues 4 to 460; the rest was not traceable; also called cis-aconitate decarboxylase; CAD; source: E. coli BL21 (DE3), purified (Ni-NTA, SEC); not shown: …
stoichiometry N: 2
